This passage reports Binding (RU), % reduction and ECLU confirmatory assay results from patent publication US20230242620A1.

Assay [1] concerns the target analytical polyclonal antibody generated in Example 2. Description: SPR Biacore T100, polyclonal immobilized, 500 nM ISV, RU at end of injection. Background: SPR reads the build-up and loss of mass on a sensor chip optically.
For assay [2], the target named is affinity purified antibody IHuP#002-001-ABL-08. Description: ECL bridging/competition assay, 10 ug/ml ISV, 400 ng/ml antibody, labelled SEQ ID NO:1.
Assay [3] deals with serum sample IHUS#B09032311A3 (pre-existing antibodies against ISV). Briefly: ECL drug displacement assay, variant as competitor against labelled SEQ ID NO:1.
Assay [4] has as its target serum sample IHUS#B09032311A1. Described as above.
The target of assay [5] is serum sample IHUS#B09032311A20 (pre-existing antibodies against ISV). The description is as above.

B1: Nb4.1 (VHH)
VHH: EVQLVESGGGLVQPGGSLRLSCAASGSVFKINVMAWYRQAPGKGRELVAGIISGGSTSYADSVKGRFTISRDNAKNTLYLQMNSLRPEDTAVYYCAFITTESDYDLGRRYWGQGTLVTVSS
Molecule B1 showed a Binding (RU) in assay [1] of 51 RU.

B2: Example 1C: (A14P, R39Q, K83R, T91Y, Q108L)-QA (VHH)
VHH: EVQLVESGGGLVQPGGSLRLSCAASGRTFNNYAMGWFRQAPGKEREFVAAITRSGVRSGVSAIYGDSVKDRFTISRDNAKNTLYLQMNSLRPEDTAVYYCAASAIGSGALRRFEYDYSGQGTLVTVSS
For B2, the % reduction in assay [2] worked out at 58.6%; in assay [3], 18%; in assay [4], 3%; in assay [5], 18%. Further, the ECLU confirmatory assay is 1210 ECLU in assay [2], 1810 ECLU in assay [3], 60 ECLU in assay [4] and 15100 ECLU in assay [5].

B3: Example 1C: (K83R) (VHH)
VHH: EVQLVESGGGLVQAGGSLRLSCAASGRTFNNYAMGWFRRAPGKEREFVAAITRSGVRSGVSAIYGDSVKDRFTISRDNAKNTLYLQMNSLRPEDTAVYTCAASAIGSGALRRFEYDYSGQGTQVTVSS
B3: the % reduction turned out to be 15.7% in assay [2], 37% in assay [3], 1% in assay [4] and 63% in assay [5]. Moreover, the ECLU confirmatory assay worked out at 2460 ECLU in assay [2], 1400 ECLU in assay [3], 62 ECLU in assay [4] and 6910 ECLU in assay [5].

B4: Example 1C: (A14P) (VHH)
VHH: EVQLVESGGGLVQPGGSLRLSCAASGRTFNNYAMGWFRRAPGKEREFVAAITRSGVRSGVSAIYGDSVKDRFTISRDNAKNTLYLQMNSLKPEDTAVYTCAASAIGSGALRRFEYDYSGQGTQVTVSS
Turning to B4, the % reduction in assay [2] turned out to be 90.8%; in assay [3], 91%; in assay [4] it was 10%; in assay [5], 96%. The ECLU confirmatory assay in assay [2] was 268 ECLU; in assay [3], 205 ECLU; in assay [4], 56 ECLU; in assay [5], 668 ECLU.

B5: Example 1C: (A14P, R39Q, K83R, T91Y, Q108L)-3A (VHH)
VHH: EVQLVESGGGLVQPGGSLRLSCAASGRTFNNYAMGWFRQAPGKEREFVAAITRSGVRSGVSAIYGDSVKDRFTISRDNAKNTLYLQMNSLRPEDTAVYYCAASAIGSGALRRFEYDYSGQGTLVTVSS
In the case of B5, the % reduction in assay [2] is -13.1%; in assay [3], 13%; in assay [4] it was 0%; in assay [5], 18%. In addition, the ECLU confirmatory assay in assay [2] amounted to 3300 ECLU; in assay [3], 1930 ECLU; in assay [4] it was 62 ECLU; in assay [5], 15200 ECLU.

B6: Example 1c: (A14P, R39Q, K83R,T91Y, Q108L) (VHH)
VHH: EVQLVESGGGLVQPGGSLRLSCAASGRTFNNYAMGWFRQAPGKEREFVAAITRSGVRSGVSAIYGDSVKDRFTISRDNAKNTLYLQMNSLRPEDTAVYYCAASAIGSGALRRFEYDYSGQGTLVTVSS
Take B6: the % reduction was found to be 91.4% in assay [2], 90% in assay [3], 6% in assay [4] and 97% in assay [5]. Besides, the ECLU confirmatory assay in assay [2] is 251 ECLU; in assay [3], 228 ECLU; in assay [4], 58 ECLU; in assay [5] it was 570 ECLU.

B7: Example 1C: wildtype (VHH)
VHH: EVQLVESGGGLVQAGGSLRLSCAASGRTFNNYAMGWFRRAPGKEREFVAAITRSGVRSGVSAIYGDSVKDRFTISRDNAKNTLYLQMNSLKPEDTAVYTCAASAIGSGALRRFEYDYSGQGTQVTVSS
On to B7, for which the % reduction in assay [2] was 7.3%; in assay [3], 20%; in assay [4], 4%; in assay [5], 53%. Besides, the ECLU confirmatory assay in assay [2] came to 2710 ECLU; in assay [3], 1780 ECLU; in assay [4], 60 ECLU; in assay [5], 8680 ECLU.

B8: Example 1C: (Q108L) (VHH)
VHH: EVQLVESGGGLVQAGGSLRLSCAASGRTFNNYAMGWFRRAPGKEREFVAAITRSGVRSGVSAIYGDSVKDRFTISRDNAKNTLYLQMNSLKPEDTAVYTCAASAIGSGALRRFEYDYSGQGTLVTVSS
For B8, the % reduction in assay [2] was found to be 13.2%; in assay [3], 31%; in assay [4] it was 5%; in assay [5], 62%. Further, the ECLU confirmatory assay in assay [2] worked out at 2530 ECLU; in assay [3], 1530 ECLU; in assay [4], 59 ECLU; in assay [5] it was 6990 ECLU.

B9: Example 1C: (A14P, K83R, Q108L) (VHH)
VHH: EVQLVESGGGLVQPGGSLRLSCAASGRTFNNYAMGWFRRAPGKEREFVAAITRSGVRSGVSAIYGDSVKDRFTISRDNAKNTLYLQMNSLRPEDTAVYTCAASAIGSGALRRFEYDYSGQGTLVTVSS
Turning to B9, the % reduction was 89.1% in assay [2], 93% in assay [3], 8% in assay [4] and 97% in assay [5]. In addition, the ECLU confirmatory assay was 319 ECLU in assay [2], 156 ECLU in assay [3], 57 ECLU in assay [4] and 628 ECLU in assay [5].

B10: Nb6.2 (VHH)
VHH: EVQLVESGGGLVQPGGSLRLSCIASGLPFSTKSMGWFRQAPGKEREFVARISPGGTSRYYGDFVKGRFAISRDNAKNTTWLQMNSLKAEDTAVYYCASGERSTYIGSNYYRTNEYDYWGTGTQVTVSS
B10 had a Binding (RU) in assay [1] of 39 RU.

B11: Nb3.10 (VHH)
VHH: EVQLVESGGGLVQAGGSLRLSCAASRSIGRLDRMGWYRHRPGEPRELVATITGGSSINYGDSVKGRFTISIDNSKNTVYLQMNSLRPEDTAVYYCNFNKYVTSRDTWGQGTLVTVSS
In assay [1], B11 displayed a Binding (RU) of 91 RU.

B12: Nb3.14 (VHH)
VHH: EVQLVESGGGLVQPGGSLRLSCAASRSIGRLDRMGWYRHRPGEPRELVATITGGSSINYGDSVKGRFTISIDNSKNTVYLQMNSLRPEDTAVYYCNFNKYVTSRDTWGQGTLVQVSS
Molecule B12 gave a Binding (RU) in assay [1] of 79 RU.

B13: Nb3.1 (VHH)
VHH: EVQLVESGGGLVQAGGSLRLSCAASRSIGRLDRMGWYRHRTGEPRELVATITGGSSINYGDFVKGRFTISIDNAKNTVYLQMNNLKPEDTAVYYCNFNKYVTSRDTWGQGTQVTVSS
Take B13: the Binding (RU) in assay [1] was found to be 2 RU.

B14: Nb3.11 (VHH)
VHH: EVQLVESGGGLVQPGGSLRLSCAASRSIGRLDRMGWYRHRPGEPRELVATITGGSSINYGDSVKGRFTISIDNSKNTVYLQMNSLKPEDTAVYYCNFNKYVTSRDTWGQGTLVTVSS
Molecule B14 gave a Binding (RU) in assay [1] of 88 RU.

B15: Nb3.15 (VHH)
VHH: EVQLVESGGGSVQPGGSLRLSCAASRSIGRLDRMGWYRHRPGEPRELVATITGGSSINYGDSVKGRFTISIDNSKNTVYLQMNSLRPEDTAVYYCNFNKYVTSRDTWGQGTLVTVSS
As for B15, the Binding (RU) in assay [1] was 22 RU.

B16: Nb3.13 (VHH)
VHH: EVQLVESGGGLVQPGGSLRLSCAASRSIGRLDRMGWYRHRPGEPRELVATITGGSSINYGDSVKGRFTISIDNSKNTVYLQMNSLRPEDTAVYYCNFNKYVTSRDTWGQGTQVTVSS
Turning to B16, the Binding (RU) in assay [1] came to 90 RU.

B17: Nb3.12 (VHH)
VHH: EVQLVESGGGLVQAGGSLRLSCAASRSIGRLDRMGWYRHRPGEPRELVATITGGSSINYGDSVKGRFTISIDNSKNTVYLQMNSLRPEDTAVYYCNFNKYVTSRDTWGQGTQVTVSS
In turn, B17 returned a Binding (RU) in assay [1] of 86 RU.

B18: Nb6.5 (VHH)
VHH: EVQLLESGGGLVQPGGSLRLSCAASGLPFSTKSMGWFRQAPGKGREFVSRISPGGTSRYYGDFVKGRFTISRDNSKNTLYLQMNSLRAEDTAVYYCASGERSTYIGSNYYRTNEYDYWGQGTLVTVSS
As to B18, the Binding (RU) in assay [1] came out at 66 RU.
